Test results: patent publication US20250221936A1, “ENGINEERED HEMICHANNELS, ENGINEERED VESICLES, AND USES THEREOF” (VIRGINIA TECH INTELLECTUAL PROPERTIES, INC., priority 2018, published 2025)
Where two headings read alike, the source gives them in different places.

Experiments:
cancer stem cells CSCs = assay: Cancer stem cell survival; assay type: cell-based
Source text: In another example, JM peptides can selectively target cancer stem cells CSCs. JM2 specific interaction with microtubules concomitantly with a loss of Cx43/microtubule complexing and a decrease in cell-cell communication in CSCs derived from patient tumors was confirmed. […] Current research includes the development of JM2-loaded biodegradable nanoparticles for JM2 sustained delivery in preparation for future clinical trials. In sum, the Cx43 mimetic peptide JM2 represents a novel and potent therapeutic opportunity to target chemoresistant CSCs in cancer treatment. This was described in (Lamouille et al., targeting glioblastoma cancer stem cells with a novel Connexin43 mimetic peptide [abstract]. In: Proceedings of the American Association for Cancer Research Annual Meeting 2017; 2017 Apr. 1-5; Washington, DC. Philadelphia (PA): AACR; Cancer Res 2017;77 (13 Suppl): Abstract nr 4765. doi: 10.1158/1538-7445.AM2017-4765), which is incorporated by reference. Further results can indicate that cancer stem cells derived from other cancers respond similarly to JM peptides. […]

[1] = 0.05% Brij-78, corneal application, cited from earlier work; for peptide in aqueous humor / peptide in vitreous humor: 20 and 40 minutes
porcine kidney = conditions: 100 μm in Belzer's solution, on ice 24 h; cited from earlier work
cornea = conditions: rat, in vivo; cited from earlier work
[2] = system: 4 mm long incisional skin injury; conditions: 60 μM in 20% pluronic gel, cited from earlier work
[3] = system: 8 mm wide circular excisional skin injuries; conditions: 100 μM in 30% pluronic gel; 10-14 day time course; cited from earlier work
PKC-ε = biological target: T1, PKC-ε (Homo sapiens, UniProt Q02156); assay: EDC cross-linking and MS/MS, PKC-ε; assay type: binding
T1 construct: purchased Life 37717L
T1 sequence (Q02156 1-737): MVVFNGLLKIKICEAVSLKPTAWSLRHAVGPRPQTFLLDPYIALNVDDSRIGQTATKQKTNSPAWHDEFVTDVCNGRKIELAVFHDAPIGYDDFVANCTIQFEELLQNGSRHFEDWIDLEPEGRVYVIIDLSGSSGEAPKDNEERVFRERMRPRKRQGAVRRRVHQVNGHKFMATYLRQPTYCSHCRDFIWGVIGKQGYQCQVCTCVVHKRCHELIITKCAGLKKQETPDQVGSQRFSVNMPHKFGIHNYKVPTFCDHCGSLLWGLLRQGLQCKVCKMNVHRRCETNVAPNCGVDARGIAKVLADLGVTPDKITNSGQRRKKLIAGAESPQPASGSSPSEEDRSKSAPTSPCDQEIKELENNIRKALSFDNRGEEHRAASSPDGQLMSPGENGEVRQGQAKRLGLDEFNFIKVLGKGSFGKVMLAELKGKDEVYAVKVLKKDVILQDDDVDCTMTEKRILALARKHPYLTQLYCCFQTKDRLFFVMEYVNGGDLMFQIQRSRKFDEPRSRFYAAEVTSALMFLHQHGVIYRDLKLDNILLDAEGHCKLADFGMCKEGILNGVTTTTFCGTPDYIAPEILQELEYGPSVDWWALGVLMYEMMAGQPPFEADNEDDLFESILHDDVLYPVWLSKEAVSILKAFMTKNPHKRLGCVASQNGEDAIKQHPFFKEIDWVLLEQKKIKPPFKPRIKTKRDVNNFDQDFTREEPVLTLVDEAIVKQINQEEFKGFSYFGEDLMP
Description: To characterize the interaction between the Cx43 CT substrate and peptides, the in vitro kinase assay was performed as above with modification and the constituents then subjected to a cross-linking reaction. The assay buffer used was 20 mM 3-(N-morpholino) propanesulfonic acid (MOPS), pH 7.2. All other reagents present in the kinase reaction were maintained as described above. The reaction was allowed to proceed at 37° C. for 15 minutes. Afterwards, the carbodiimide crosslinker 1-Ethyl-3-(3-dimethylaminopropyl) carbodiimide HCl (EDC) (Thermo, 22980) was added to each solution for a final concentration of 20 mM. The solution was allowed to cross-link for one hour at room temperature. The reaction was stopped by the addition of 4×LDS loading buffer, boiled for 5 minutes and subsequently separated by PAGE. The resulting gel was stained in Coomassie brilliant blue (Sigma, B0770) for two hours and destained in a solution of 4% methanol 7% acetic acid overnight. Gel bands were subsequently excised for mass spectrometric analysis. For the direct interaction between protein and peptides, PBS, pH 7.5 was used as the coupling buffer. The protein (50 μg/ml) and peptide (25 μM) were allowed to react at room temperature for one hour before EDAC was added to the reaction mixture. The reaction was Western blotted for Cx43, GST or NeutroAvidin. […]

[4] = biological target: T2, PKC-ε phosphorylation of Cx43-CT substrate at Ser368 (Rattus norvegicus, UniProt P08050); conditions: purified PKC enzyme and Cx43 CT substrate; cited from earlier work
T2 construct: substrate (Cx43-CT: amino acids 255 to 382); GST (N); made in house; host or cells: E. coli BL21 (Cx43 CT); PKC-ε purchased (Life, 37717L)
T2 sequence (P08050 255-382): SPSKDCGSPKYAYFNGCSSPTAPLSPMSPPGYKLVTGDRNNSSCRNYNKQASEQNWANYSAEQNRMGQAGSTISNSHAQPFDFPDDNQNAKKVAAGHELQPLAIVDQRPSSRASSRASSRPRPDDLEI

Sequence | viability and self-renewal of colon cancer stem cells (cancer stem cells CSCs) | peptide in aqueous humor [1] | peptide in vitreous humor [1] | peptide in aqueous humor ([1]; listed as ACTI) | peptide in vitreous humor ([1]; listed as ACTI) | peptide in retinal pigment epithelial layer [1] | peptide in retinal pigment epithelial layer ([1]; listed as ACTI) | Cx43 staining (porcine kidney) | nitrotyrosine staining (porcine kidney) | corneal closure and regeneration (cornea) | appearance of incisional injury ([2]; at 7 days) | appearance of incisional injury ([2]; by 48 hours) | healing of excisional injuries [3] | interaction with PKC-ε (PKC-ε) | S368 phosphorylation in vitro [4]
VFFKGVKDRVKGRSD [JM2] | effectively reduced the viability and self-renewal of cancer stem cells from patients with colon cancer | – | – | – | – | – | – | – | – | – | – | – | – | – | –
RQPKIWFPNRRKPWKKRPRPDDLEI [alpha CT1] | – | detectable level of ACT1 in the internal fluids of the anterior chamber | Lower levels of ACT1 could also be detected | detectable level of ACTI in the internal fluids of the anterior chamber | Lower levels of peptide could also be detected | ACT1 was detectable in the retinal pigment epithelial layer | peptide was detectable in the retinal pigment epithelial layer | Punctate Cx43 staining in the membrane (gap junctions) were preserved | no changes in nitrotyrosine staining in the presence of ACT1 peptide | faster closure and more complete corneal regeneration than control corneas | smoother and less scarred appearance | significantly more closed, less inflamed, less swollen | closed faster, were less inflamed in appearance, healed faster and scarred less | no evidence for interaction between PKCE and alpha CT1 | promoted S368 phosphorylation in vitro in a dose-dependent manner
